Measured values taken from the nanobody polyreactivity screen of Harvey et al. (2022).

Assay: yeast display, Sf9 membrane polyspecificity reagent, FACS + sequencing; frameworks hold sequencing errors
Summary of the method: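 Nanobodies came from a synthetic yeast display library in Saccharomyces cerevisiae BJ5465, induced with galactose for 36–48 hours and stained for 1 hour at 4 °C with 10% biotinylated, detergent-solubilized Sf9 membrane reagent. Cells were enriched on streptavidin microbeads and then FACS-sorted, with low and high (top ~1%) gates set on anti-HA fluorescence for expression and streptavidin fluorescence for reagent binding. Each polyreactivity label reflects the gate a clone came from. Genes were amplified by colony PCR, sequenced by MiSeq 2 × 250 and filtered by CDR length.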

Sequence	polyreactivity (PSR sort gate)
QVQLVESGGGLVQAGGSLRLTCAASGSTFGWYAMGWYRQAPGKERELVAAIRSNGGSTYYADSVKGRFTISRDNAKNTVYLHMNSLKPEDTAVYYCAGRGSPSKHHWYDYWGQGTQVNVSS	low polyreactivity
QVHLVESGGGLVQAGGSLRLICAASGSIFPRNAMGWYRQAPGKERELVARINSGGTTKYADSVKGRFTISRDNAKNTVFLQMNSLKPEDTAVYYCNADTYILDPLRKSYGYDYWGQGTQVTVSS	low polyreactivity
QVQLVESGGGLVQAGGSLRLICAASGSTFYSYTMGWYRPAPGKERELVARISSSGSTNYADSVKGRFTISRYNAKNTVYLQMNSLKPEDTAVYYCNKDWFYRGYDYWGQGTQVTVSS	high polyreactivity
QVQLVESGGGLGQAGGSLRLSCAASGSLITQNALGWYRLAPGKEWELVADISRGSTYSADSVKGRFTISRDNAKNTVYLQLTSLKPEDTALYYSAADDIAHPSFVSTVDVGMDYWGQGPQVTVSS	low polyreactivity
QVQLVESGGGLVQAGGSLRLSCAASGNIFYANDMGWYIQAPGKERELVAAITGSGGSTYYADSVKGRFTISRDNAKNTVYLQMDSLKPEDTAVYYCATPYDIQWASESHDSWGQGTQVTVSS	low polyreactivity
QVQLVESGGGLVQAGGSLRLSCAASGRIFAYYVMGWYRQAPGKERELVASISSGGGTYYADSVKGRFTISRDNAKNTVYLQMNSLKPEDTAVYYCAARWRRYVYPDGHLFWYDYWGQGTQVTVSS	high polyreactivity
QVQLVESGGGLVQAGGSLRLSCAASGSISVVNMGWYRQAPGKERELVASITSSGSTTYADSVKGRFTISRDNAKNTVYLQMNSLKPEDTAVYYCAADVGTDYTYQHPAGAAYDYWGQGTQVTVSS	low polyreactivity
QVQLVESGACLVKAGGSLRLSCAASGSSFYGYAMGWYRQAPGKERELVASITVSVGSTNADSVKGRFTISRDNAKNTVYLQMISLKPEDTAVYYCAAETVHSREQREGDYWGQGTQVSVSS	low polyreactivity
QVQLVESGGGLVQAGGSLRLSCAASGRIFRWYAMGWYRQAPGKERELVATISSTGGSTYYADSVKGRFTISRDNAKNTDYLQMNSLKPEDTAVYDCNAVVYGIFLYAWYDYWGQGTQVTVSS	low polyreactivity
QVQLVESGGGLVHAGGRLRLSCAASGSMFYPYAMGWYRQAPGKERELVAAISRSGGSTRYADSVKGRFTISRDHAQNTVYLQMNSLKPEDTAVYYCAVRVFYGVGLIGYYYWGQGSQVTVSS	high polyreactivity
QVQLVESGGGLVQAGGSLRLSCAASGRTFRYYTMGWYRQAPGKERELVAAISWSSGSTYYADSVKGRFTISRDNAKNTVYLQMNSLKPEDTAVYYCAASRVRREYVGQDVGFVGYDSWGQGTQVTVSS	high polyreactivity
QVQLVESAGGLVQAGGSLRLSCAASGRTFGWYAMGWYRQAPGKERELVAAITSSDDSTYYADSVKGRFTISRDNAKNTVYLQMNSLKPEDTEVYYCNKVKYFARSAYGYWGLGTQVTVSS	low polyreactivity
QVQLVESGGGLVQAGGSLRLSCAASGRIFAIYAAIGWYRQAPGKERELVAAISSGDNTNYADSEKGRFTISRDNAKNTVYLQMNSLIPEDTAVYYCATDLVYYAAVTKFAEYDYWGQGTQVTVSS	low polyreactivity
QVQLVESAGGLVQAGGSLSLSCAANGFTFTYYTMGWYRQAPGKERELVAAITENGGSTYYADSVKGRFTISRDNAKNTVYLQMNSLKPEDTAVYYCNARVWDYGGHGYDYWGQGTQVTVSS	low polyreactivity
QVQLVESGGGLVQAGGSLRLSCAASGSIFVGYAMGWYRQAPGKERELVARISSDGDTYYADSVKGRFTISRDNAKNTVYLQMNSLKPEDTAVYYCNADLYGGGDKSVISGLNGEYEYWGQGTQVTVSS	low polyreactivity
QVQLVESGGGLVQAGGSLRLSCAASGLIFPYYVMGWYRQAPGKERELVAAISVSGGNTYYADSVKGRFTISRDNAKNTVYLQMNSLKPEDTAVYYCAADHYRGSYDYWGQGTQVTVSS	high polyreactivity
QVQLVESGGGLVQAGGSLRLSCAASGRTFRPYAMGWDRQAPGKEREFVAAIRSSGDSTYYADSVKGRFTISRDNAKNTVYLQMNSLKPEDTAVYYCAADVYRYRVRGMNYWGQGTQVTVSS	high polyreactivity
QVQLVESGGGLVQAGGSLRLSCAASGRIFSRYTMGWYRQAPGKERELVAGITRGGGSTYYADSVKGRFTISRDNAKNTVYLQMNSLKPEDNAVYYCNAETSYAWWHYDYWGQGTQVTVSS	low polyreactivity
QVQLVESGGGLVQAGGSLRLSCAASGSTLALYTMGWYIQAPGKERELVAAISKNGGRTYYADSVKGRFRISRDNAMNTVYLQMNSLKPEDTAVYYCAAASGSYRGYDYWGQCTQVTVSS	high polyreactivity
QVQLVESGGGLVQAGGSLRLSCAASGSIFTYYVMGWYRQAPGKERELVATITGSSGSTYYADSVKGRFTISRDNAKNTVYLQMNSLKPEDTAVYYCNRTYYHYLYRGYGYWGQGTQVTVSS	low polyreactivity
QVQLVESGGGLVQAGGSLRLSCAASGFIFQRNAMGWYRQAPGKERELVAAISWTGGSTYYADSVKGRFTISRDNAKNTVYLQMNSLKPDVTAVYYCAKYGSGPYGYWGQGTQVTVSS	high polyreactivity
QVQLVESGGGLVQAGGSLRLSCAASGSIFQNYAMGWYRQAPGKERELVAAISWSGDTYYADSVKGRFTISRDNAKNTVYLQMNSLKPEDTAVYYCAATYPYSLYYPYYGGDYDYWGQGTQVTVSS	low polyreactivity
